Experimental data taken from patent publication US11278600B2, “Human alpha-galactosidase variants” (Codexis, Inc., priority 2014, dated 2022).

Legend:
Format in all cases: biochemical
[1] = HTP-analysis of yeast culture supernatants, no challenge (MUGal hydrolysis); conditions: activity of the variant/activity of Rd7BB (SEQ ID NO: 44)
Procedure, shortened: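 Activity read as 4-methylumbelliferyl α-D-galactopyranoside hydrolysis: fluorescence (355/448 nm) after sodium carbonate stop, following 30-180 min at 37° C with 2 mM MUGal stock at pH 4.6–4.8. Enzyme source is unchallenged culture supernatant of INVSc1 yeast expressing GLA variants, grown 66-84 h at 30° C.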

[2] = HTP-analysis of supernatants pretreated with base (MUGal hydrolysis); conditions: activity of the variant/activity of Rd7BB (SEQ ID NO: 44); challenge at pH 7.5
Procedure, shortened: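 Supernatants from INVSc1 yeast expressing GLA variants (SD-Ura, 66-84 h, 30° C) were mixed with McIlvaine buffer pH 7.0-8.2 or 200 mM sodium bicarbonate pH 9.1-9.7 and held 1-18 h at 37° C. Residual activity was then measured on MUGal at pH 4.8/4.3, 37° C, 30-180 min, by fluorescence (Ex 355/Em 448 nm).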

[3] = HTP-analysis of supernatants pretreated with acid (MUGal hydrolysis); conditions: activity of the variant/activity of Rd7BB (SEQ ID NO: 44); challenge at pH 3.5
Procedure, shortened: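 Fluorescence of MUGal hydrolysis (Ex. 355 nm, Em. 448 nm) is read after sodium carbonate quench. The enzyme source is INVSc1 yeast culture supernatant, first exposed to pH 3.3-4.3 McIlvaine buffer at 37° C. for 1-3 h, then reacted at pH 4.8 for 30-180 minutes.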

Molecule | Relative Activity of GLA Variants After No Challenge (NC) [1] | Relative Activity of GLA Variants After Challenge at pH 7.5 [2] | Relative Activity of GLA Variants After Challenge at pH 3.5 [3]
678 (protein, Synthetic Polypeptide sequence of Variant No. 678 of mature Human GLA) LDNGLARTPTMGWLHWERFMCNLDCQEEPDSCISEKLFMEMAERMVTEGWKDAGYEYLCIDDCWMAPQRDSEGRLQADPQRFPHGIRQLANHVHSKGLKLGIYADVGNKTCAGFPGSFGYYDIDAQTFADWGVDLLKFDGCYCDSLENLADGYKHMSLALNRTGRPIVYSCEWPLYMWPFQKPNYTEIRQYCNHWRNFADIDDSWASIKSILDWTSRNQERIVDVAGPGGWNDPDMLVIGNFGLSWDQQVTQWALWGIMAAPLFMSNDLRAISPQARALLLDKDVIAINQDPLGKQGYQLRKGDNFEVWERPLSGDAWDVAIINRQEIGGPRSYTIPVASLGKGVACNPACFITQLLPVKRQLGFYNWTSRLKSHINPTGTVLLQLENTMQTSLKDLL | − (<0.5 relative activity to Rd7BB (SEQ ID NO: 44)) | − (<0.5 relative activity to Rd7BB (SEQ ID NO: 44)) | − (<0.5 relative activity to Rd7BB (SEQ ID NO: 44))
679 (protein, Synthetic Polypeptide sequence of Variant No. 679 of mature Human GLA) LDNGLARTPPMGWLHWERFMCNLDCQEEPDSCISEKLFEEMAERMVTEGWKDAGYEYLCIDDCWMAPQRDSEGRLQADPQRFPHGIRQLANHVHSKGLKLGIYADVGNKTCAGFPGSFGYYDIDAQTFADWGVDLLKFDGCYCDSLENLADGYKHMSLALNRTGRPIVYSCEWPLYMWPFQKPNYTEIRQYCNHWRNFADIDDSWASIKSILDWTSRNQERIVDVAGPGGWNDPDMLVIGNFGLSWDQQVTQMALWAIMAAPLFMSNDLRAISPQAKALLQDKDVIAINQDPLGKQGYQLRKGDLFEVWERPLSGDAWAVAIINRQEIGGPRSYTIPVASLGKGVACNPACFITQLLPVKRQLGFYNWTSRLKSHINPTGTVLLQLENTMQTSLKDLL | + (>0.5 to 1.5 relative activity over Rd7BB (SEQ ID NO: 44)) | + (>0.5 to 1.5 relative activity over Rd7BB (SEQ ID NO: 44)) | + (>0.5 to 1.5 relative activity over Rd7BB (SEQ ID NO: 44))
681 (protein, Synthetic Polypeptide sequence of Variant No. 681 of mature Human GLA) LDNGLAPTPTMGWLHWERFMCNLDCQEEPDSCISEKLFMEMAERMVTEGWKDAGYEYLCIDDCWMAPQRDSEGRLQADPQRFPHGIRQLANHVHSKGLKLGIYADVGNKTCAGFPGSFGYYDIDAQTFADWGVDLLKFDGCYCDSLENLADGYKHMSLALNRTGRPIVYSCEWPLYMWPFQKPNYTEIRQYCNHWRNFADIDDSWASIKSILDWTSRNQERIVDVAGPGGWNDPDMLVIGNFGLSWDQQVTQMALWAIMAAPLFMSNDLRAISPQAKALLQDKDVIAINQDPLGKQGYQLRKGDNFEVWERPLSGDAWAVAIINRQEIGGPRSYTIPVASLGKGVACNPACFITQLLPVKRQLGFYNWTSRLKSHINPTGTVLLQLENTMQTSLKDLL | − (<0.5 relative activity to Rd7BB (SEQ ID NO: 44)) | − (<0.5 relative activity to Rd7BB (SEQ ID NO: 44)) | − (<0.5 relative activity to Rd7BB (SEQ ID NO: 44))
682 (protein, Synthetic Polypeptide sequence of Variant No. 682 of mature Human GLA) LDNGLARTPTMGWLHWERFMCNLDCQEEPDSCISEKLFMEMAERMVTEGWKDAGYEYLCIDDCWMAPQRDSEGRLQADPQRFPHGIRQLANHVHSKGLKLGIYADVGNKTCAGFPGSFGYYDIDAQTFADWGVDLLKFDGCYCDSLENLADGYKHMSLALNRTGRPIVYSCEWPLYMWPFQKPNYTEIRQYCNHWRNFADIDDSWASIKSILDWTSRNQERIVDVAGPGGWNDPDMLVIGNFGLSWDQQVTQMALWAIMAAPLFMSNDLRAISPQAKALLQDKDVIAINQDPLGKQGYQLRKGDNFEVWERPLSGYAWAVAIINRQEIGGPRSYTIPVASLGKGVACNPACFITQLLPVKRQLGFYNWTSRLKSHINPTGTVLLQLENTMQTSLKDLL | + (>0.5 to 1.5 relative activity over Rd7BB (SEQ ID NO: 44)) | + (>0.5 to 1.5 relative activity over Rd7BB (SEQ ID NO: 44)) | + (>0.5 to 1.5 relative activity over Rd7BB (SEQ ID NO: 44))
680 (protein, Synthetic Polypeptide sequence of Variant No. 680 of mature Human GLA) LDNGLARTPPMGWLHWERFMCNLDCQEEPDSCISEKLFEEMAERMVTEGWKDAGYEYLCIDDCWMAPQRDSEGRLQADPQRFPHGIRQLANHVHSKGLKLGIYADVGNKTCAGFPGSFGYYDIDAQTFADWGVDLLKFDGCYCDSLENLADGYKHMSLALNRTGRPIVYSCEWPLYMWPFQKPNYTEIRQYCNHWRNFADIDDSWASIKSILDWTSRNQERIVDVAGPGGWNDPDMLVIGNFGLSWDQQVTQMALWAIMAAPLFMSNDLRAISPQAKALLQDKDVIAINQDPLGKQGYQLRKGDNFEVWERPLSGDAWAVAIINRQEIGGPRSYTIPVASLGKGVACNPACFITQLLPVKRQLGFYNWTSRLKSHINPTGTVLLQLENTMQTSLKDLL | + (>0.5 to 1.5 relative activity over Rd7BB (SEQ ID NO: 44)) | + (>0.5 to 1.5 relative activity over Rd7BB (SEQ ID NO: 44)) | + (>0.5 to 1.5 relative activity over Rd7BB (SEQ ID NO: 44))
683 (protein, Synthetic Polypeptide sequence of Variant No. 683 of mature Human GLA) LDNGLARTPTMGWLHWERFMCNLDCQEEPDSCISEKLFEEMADRMVTEGWKDAGYEYLCIDDCWMAPQRDSEGRLQADPQRFPHGIRQLANHVHSKGLKLGIYADVGNKTCAGFPGSFGYYDIDAQTFADWGVDLLKFDGCYCDSLENLADGYKHMSLALNRTGRPIVYSCEWPLYMWPFQKPNYTEIRQYCNHWRNFADIDDSWASIKSILDWTSRNQERIVDVAGPGGWNDPDMLVIGNFGLSPDQQVTQWALWAIMAAPLFMSNDLRAIDPQAKALLQDKDVIAINQDPLGKQGYQLRKGDNFEVWERPLSGDAWAVAIINRQEIGGPRSYTIPVASLGKGVACNPACFITQLLPVKRQLGFYNATSRLKSHINPTGTVLLQLENTMQTSLKDLL | + (>0.5 to 1.5 relative activity over Rd7BB (SEQ ID NO: 44)) | − (<0.5 relative activity to Rd7BB (SEQ ID NO: 44)) | + (>0.5 to 1.5 relative activity over Rd7BB (SEQ ID NO: 44))
685 (protein, Synthetic Polypeptide sequence of Variant No. 685 of mature Human GLA) LDNGLARTPTMGWLHWERFMCNLDCQEEPDSCISEKLFMEMADRMVTEGWKDAGYEYLCIDDCWMAPQRDSEGRLQADPQRFPHGIRQLANHVHSKGLKLGIYADVGNKTCAGFPGSFGYYDIDAQTFADWGVDLLKFDGCYCDSLENLADGYKHMSLALNRTGRPIVYSCEWPLYMWPFQKPNYTEIRQYCNHWRNFADIDDSWASIKSILDWTSRNQERIVDVAGPGGWNDPDMLVIGNFGLSWDQQVTQWALWGIMAAPLFMSNDLRAISPQAKALLQDKDVIAINQDPLGKQGYQLRKGDLFEVWERPLSGDAWAVAIINRQEIGGPRSYTIPVASLGKGVACNPACFITQLLPVKRQLGFYNATSRLKSHINPTGTVLLQLENTMQTSLKDLL | + (>0.5 to 1.5 relative activity over Rd7BB (SEQ ID NO: 44)) | − (<0.5 relative activity to Rd7BB (SEQ ID NO: 44)) | − (<0.5 relative activity to Rd7BB (SEQ ID NO: 44))
684 (protein, Synthetic Polypeptide sequence of Variant No. 684 of mature Human GLA) LDNGLARTPTMGWLHWERFMCNLDCQEEPDSCISEKLFMEMAERMVTEGWKDAGYEYLCIDDCWMAPQRDSEGRLQADPQRFPHGIRQLANHVHSKGLKLGIYADVGNKTCAGFPGSFGYYDIDAQTFADWGVDLLKFDGCYCDSLENLADGYKHMSLALNRTGRPIVYSCEWPLYMWPFQKPNYTEIRQYCNHWRNFADIDDSWASIKSILDWTSRNQERIVDVAGPGGWNDPDMLVIGNFGLSWDQQVTQMALWAIMAAPLFMSNDLRAISPQAKALLQDKDVIAINQDPLGKQGYQLRKGDNFEVWERPLSGDAWAVAIINRQEIGGPRSYTIPVASLGKGVACNPACFITQLLPVKRQLGFYNATSRLKSHINPTGTVLLQLENTMQTSLKDLL | + (>0.5 to 1.5 relative activity over Rd7BB (SEQ ID NO: 44)) | + (>0.5 to 1.5 relative activity over Rd7BB (SEQ ID NO: 44)) | + (>0.5 to 1.5 relative activity over Rd7BB (SEQ ID NO: 44))
